Laboratory results published in FireProtDB (doi:10.1093/protein/gzi051).

B1: Alpha-lactalbumin, P00711 (parent)
chain: MMSFVSLLLVGILFHATQAEQLTKCEVFRELKDLKGYGGVSLPEWVCTTFHTSGYDTQAIVQNNDSTEYGLFQINNKIWCKDDQNPHSSNICNISCDKFLDDDLTDDIMCVKKILDKVGINYWLAHKALCSEKLDQWLCEKL

Variants of: B1
Conditions: Bos taurus, pH 7.7, Thermal, Fluorescence, HEPES-KOH 10 mM, structure 1HFZ, whole UniProt chain shown

E30L
Tm: 27.5 °C

E44A
Tm (CaCl2 1 mM): 60.9 °C
change of melting temperature, mutant - wild type (higher = more stable) (CaCl2 1 mM): 1.1 °C
Tm: 19.5 °C

E20Q
Tm: 23.5 °C

E20M
Tm (CaCl2 1 mM): 69.8 °C
change of melting temperature, mutant - wild type (higher = more stable) (CaCl2 1 mM): 10 °C
Tm: 36.8 °C

E26Q
Tm (CaCl2 1 mM): 67.7 °C
change of melting temperature, mutant - wild type (higher = more stable) (CaCl2 1 mM): 7.9 °C
Tm: 27 °C

D56N
Tm (CaCl2 1 mM): 74.2 °C
change of melting temperature, mutant - wild type (higher = more stable) (CaCl2 1 mM): 14.4 °C
Tm: 31.7 °C
